Data set [1] concerns the target YtvA LOV domain 21-147 (Bacillus subtilis) (UniProt O34627). The settings on record: cited from earlier work.
For another data set, the target named is YtvA (Bacillus subtilis) (UniProt O34627). Conditions: cited from earlier work.
For data set [2], the target named is T1, YLOV (Apo-YLOV; LOV domain of YtvA, aa 1-128) (Bacillus subtilis, UniProt O34627, M1G).
T1 construct: gene pfyP; LOV domain with N-terminal cap, aa 1-128; apo form in monomer-dimer equilibrium; 15N-labelled for ITC
T1 sequence (O34627 1-128 M1G): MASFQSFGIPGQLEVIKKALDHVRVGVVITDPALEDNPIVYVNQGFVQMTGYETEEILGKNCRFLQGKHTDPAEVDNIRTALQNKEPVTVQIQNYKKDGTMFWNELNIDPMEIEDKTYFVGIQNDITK
In words: isothermal titration calorimetry. The settings on record: 25 °C; 20 mM Tris-HCl pH 7.5, 150 mM NaCl, 500 µM TCEP; dark; apoprotein titrated into flavin; single-site global fit; brackets 95% confidence interval. In kind it is binding. The source says:
isothermal titration calorimetry on YLOV (Apo-YLOV; LOV domain of YtvA, aa 1-128)

Data set [3] concerns the molecule itself. Nature of the data set: AUC; sedimentation velocity, 45,000 rpm, 20 °C, absorbance at 280 nm; Apo-YtvA at 15, 30 and 60 µM in buffer H (20 mM K-phosphate pH 6.5, 50 mM NaCl, 5 mM DTT, 0.1% azide); c(S) analysis with Sedfit; dimer to monomers.
Data set [4] concerns the molecule itself. In words: AUC; sedimentation velocity, 45,000 rpm, 25 °C, absorbance at 280 nm; Apo-YLOV at 17.5, 35 and 70 µM in buffer G (20 mM Tris-HCl pH 7.5, 150 mM NaCl, 500 µM TCEP); c(S) analysis with Sedfit; dimer to monomers; the KD is called only an estimate.

Numbering of substitutions follows the chain as printed.

The values below come from article PMC3836802, “LOV Takes a Pick: Thermodynamic and Structural Aspects of the Flavin-LOV-Interaction of the Blue-Light Sensitive Photoreceptor YtvA from Bacillus subtilis” (PLoS ONE, 2013).

“YtvA LOV domain 21-147 (from UniProt O34627)”: the Kd in data set [1] is less than 200 nM.

As to YtvA (from UniProt O34627), the Kd with YtvA (Bacillus subtilis) was less than 300 nM. In turn, `Cc1cc2nc3c(=O)[nH]c(=O)nc-3n(C[C@H](O)[C@H](O)[C@H](O)COP(=O)(O)O)c2cc1C` [FMN] displayed a Kd in data set [2] of 715 nM.

`Cc1cc2nc3c(=O)[nH]c(=O)nc-3n(C[C@H](O)[C@H](O)[C@H](O)COP(=O)(O)OP(=O)(O)OC[C@H]3O[C@@H](n4cnc5c(N)ncnc54)[C@H](O)[C@@H]3O)c2cc1C` [FAD] came in with a Kd in data set [2] of 224 nM. On to `Cc1cc2nc3c(=O)[nH]c(=O)nc-3n(C[C@H](O)[C@H](O)[C@H](O)CO)c2cc1C` [RF], for which the affinity in data set [2], expressed as Kd, was 351 nM.

B1: Apo-YtvA (deflavinated full length YtvA, aa 1 – 261) (natural protein, Bacillus subtilis, UniProt O34627 1-261, looked up)
chain: GASFQSFGIPGQLEVIKKALDHVRVGVVITDPALEDNPIVYVNQGFVQMTGYETEEILGKNCRFLQGKHTDPAEVDNIRTALQNKEPVTVQIQNYKKDGTMFWNELNIDPMEIEDKTYFVGIQNDITKQKEYEKLLEDSLTEITALSTPIVPIRNGISALPLVGNLTEERFNSIVCTLTNILSTSKDDYLIIDLSGLAQVNEQTADQIFKLSHLLKLTGTELIITGIKPELAMKMNKLDANFSSLKTYSNVKDAVKVLPIM
notes: YtvA, blue-light photoreceptor of Bacillus subtilis, full length, residues 1-261 (LOV domain aa 21-126, Jα-helix aa 127-147, STAS domain aa 148-261); Met1 replaced by the Gly left after TEV cleavage; source: TEV cleavage; not shown: His tag, N-terminal, cleaved
As for B1, the “stoichiometry N” value in data set [3] was 2.

B2: Apo-YLOV (deflavinated extended LOV domain of YtvA, aa 1 – 128) (domain or fragment, Bacillus subtilis, UniProt O34627 1-128, looked up)
chain: T1 sequence (O34627 1-128 M1G) with M1G
notes: YtvA, blue-light photoreceptor of Bacillus subtilis, residues 1-128 (N-terminal cap and LOV domain); TEV cleavage leaves a Gly at the N-terminus; the forward primer reads Gly-Ala-Ser-Phe-Gln, so the Gly stands in the place of Met1; also called YtvA-LOV domain; not shown: His tag, N-terminal, cleaved
B2: in data set [4], the Kd is approximately 14000 nM and the “stoichiometry N” value is 2.
